# Laboratory results reported in patent US20130195872A1 (NOVIMMUNE S A, published 2013).
# Substitutions are numbered along the chain they refer to.
# T1: rat IL-17A homodimer (rat, UniProt Q61453 18-150, limits assumed)
# T1 sequence (looked up): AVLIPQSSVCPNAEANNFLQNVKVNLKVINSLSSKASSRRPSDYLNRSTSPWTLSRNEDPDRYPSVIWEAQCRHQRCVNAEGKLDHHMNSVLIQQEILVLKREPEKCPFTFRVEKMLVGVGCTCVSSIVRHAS
# T2: cynomolgus IL-17A homodimer (cynomolgus, UniProt A0A2K5TTB0 20-155)
# T2 sequence: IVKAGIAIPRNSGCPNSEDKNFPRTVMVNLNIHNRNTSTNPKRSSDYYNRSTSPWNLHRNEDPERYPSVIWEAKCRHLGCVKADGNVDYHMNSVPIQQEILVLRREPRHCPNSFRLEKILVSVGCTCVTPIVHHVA
# T3: human IL-17A homodimer (human, UniProt Q16552 20-155, limits assumed)
# T3 sequence (looked up): T2 sequence with A7T, S12P, S38N, V81I, K82N, R108P
# T4: cynomolgus IL-17F homodimer (cynomolgus, UniProt G7P4V0 31-163)
# T4 sequence: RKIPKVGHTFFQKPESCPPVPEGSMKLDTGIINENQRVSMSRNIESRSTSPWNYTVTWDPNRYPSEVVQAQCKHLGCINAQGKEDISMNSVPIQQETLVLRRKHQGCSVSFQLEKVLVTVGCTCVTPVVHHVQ
# T5: human IL-17A/IL-17F heterodimer (human, UniProt Q16552 24-155; Q96PD4 31-163, limits assumed)
# T5 sequence (looked up) 1: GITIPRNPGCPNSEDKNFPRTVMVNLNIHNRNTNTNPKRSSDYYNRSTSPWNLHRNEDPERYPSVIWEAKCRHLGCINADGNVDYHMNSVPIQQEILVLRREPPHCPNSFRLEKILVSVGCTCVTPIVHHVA
# T5 sequence (looked up) 2: T4 sequence with E22G, T29I, K73R, H74N, L100V, V129I
# T6: mouse IL-17F homodimer (mouse, UniProt Q7TNI7 29-161, limits assumed)
# T6 sequence (looked up): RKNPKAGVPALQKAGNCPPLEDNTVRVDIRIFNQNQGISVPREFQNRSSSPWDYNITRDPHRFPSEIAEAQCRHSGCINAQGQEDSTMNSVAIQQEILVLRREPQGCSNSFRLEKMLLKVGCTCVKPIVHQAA
# T7: mouse IL-17A homodimer (mouse, UniProt Q62386 26-158, limits assumed)
# T7 sequence (looked up): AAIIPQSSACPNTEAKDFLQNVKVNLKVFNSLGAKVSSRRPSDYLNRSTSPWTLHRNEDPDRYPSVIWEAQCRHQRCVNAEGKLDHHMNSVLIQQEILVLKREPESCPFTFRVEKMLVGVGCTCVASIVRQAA
# B1: 12B12 antibody (antibody, IgG4, V domains shown)
# VH: QVQLVQSGAEVKKPGSSVKVSCKASGGTLSSYAFSWVRQAPGQGLEWMGGIIPFFGTVNYAQKFQGRVTITADESTNTAYMELSSLRSEDTAVYYCARDRDYYGLGSPLHYYGLDVWGQGTTVTVSS
# VL: EIVLTQSPDFQSVTPKEKVTITCRASQSIGSSLHWYQQKPDQSPKLLIKYASQSFSGVPSRFSGSGSGTDFTLTINSLEAEDAAAYYCHQSSSLPWTFGQGTKVEIK
# B2: 15B7 antibody (antibody, IgG4, V domains shown)
# VH: B1 VH with V58A, N59H, L105S, L109F, Y111F, Y112S
# VL: B1 VL
# B3: 39F12 antibody (antibody, IgG4, V domains shown)
# VH: B1 VH with V58T, T69I, S85G, L109F, H110Y, L114M
# VL: B1 VL
# notes: also called Mab06a; 39F12 IgG4
# B4: 8B11 antibody (antibody, IgG3, V domains shown)
# VH: EVQLVESGGGLVHPGGSLRLSCAASGFTFSSFNMDWVRQAPGKGLEWVSSISTTSRIIYSADSVKGRFTISRDNARNSLYLQMNSLRDEDTAVYYCARVSYYGHGFDYWGQGTLVTVSS
# VL: DIQMTQSPSSLSASVGDRVTITCRASQGISSWLAWYQQKPEKAPKSLIYAASSLQSGVPSRFSGSGSGTDFTLTISSLQPEDFATYYCQQYNSYPLTFGGGTKVEIK
# B5: 29D8 antibody (antibody, IgG1, V domains shown)
# VH: QVQLVQSGAEVKKPGASVKVSCKAFAYTFSTYGISWVRQAPGQGLEWMGWISAYNSNTNYAQKVQGRITMTTDTSTRTAYMELRGLRSDDTAVYFCATFFGGHSGYHYGLDVWGQGTTVTVSS
# VL: EIVLTQSPATLSLSPGERATLSCRASQSVSSYLAWYQQKPGQAPRLLIYDASNRATGIPARFSGSGSGTDFTLTISSLEPEDFAVYYCQQRSNWPPYTFGQGTKLEIK
# B6: 1E4 antibody (antibody, IgG4, V domains shown)
# VH: QVQLVQSGAEVKKPGASVKVSCKASVYTFTTYGISWVRQAPGQGLEWMGWISVYNGNTNYGQNFQGRVSMTTDTSTSTAYMELRSLRSDDTAVYYCASFHGGHSGYHYGLDVWGQGTTVTVSS
# VL: B5 VL
# B7: 31A3 antibody (antibody, IgG1, V domains shown)
# VH: B6 VH with S52T, G61A, N63K, Q65H, S69T
# VL: B5 VL
# B8: 30D12 antibody (antibody, IgG1, V domains shown)
# VH: QVQLVQSGAEVKKPGASVKVSCKASGYTFTSYDINWVRQATGQGLEWMGWMNPDSGVIRYAQKFQGRVTMTRNTSISTAYMELNSLRSEDTAVYYCAREWFGELPSYYFYSGMDVWGQGTTVTVSS
# VL: EIVLTQSPATLSLSPGERATLSCRASQSVSSYLAWYQQKPGQAPRLLIYDASNRATGIPARFSGSGSGTDFTLTISSLEPEDFAVYYCQQRSNWPPTFGPGTKVDIK
# notes: Fully human monoclonal antibody; also called 30D12 IgG1
# B9: 38B1 antibody (antibody, IgG1, V domains shown)
# VH: EVQLVESGGGLVQPGRSLRLSCAASGFTFDDFAMHWVRQAPGKGLEWVSGINWNSGSIGYADSVKGRFTISRDNAKNSLYLQMNSLRAEDTALYYCAKDIAAAGEFYFDMDVWGQGTTVTVSS
# VL: B8 VL with P100Q, V104L, D105E
# notes: also called 38B1 IgG1
# B10: 15E6 antibody (antibody, IgG4, V domains shown)
# VH: EVQLVESGGGLVQPGRSLRLSCAASGFTFDDYAMHWVRQAPGKGLEWVSGINWNSGGIGYADSVKGRFTISRDNAKNSLYLQMNSLRAEDTALYYCARDMGGFGEFYWNFGLWGRGTLVTVSS
# VL: not shown
# notes: also called 15E6 IgG4
# Experiments:
# rat IL-17A homodimer = target: T1, rat IL-17A homodimer; experiment: cell-based or functional assay
# [1] = target: T2, cynomolgus IL-17A homodimer; experiment: cell-based or functional assay
# human IL-17A homodimer [2] = target: T3, human IL-17A homodimer; experiment: cell-based or functional assay
# [3] = target: T4, cynomolgus IL-17F homodimer; experiment: cell-based or functional assay
# [4] = target: T5, human IL-17A/IL-17F heterodimer; experiment: cell-based or functional assay
# mouse IL-17F homodimer = target: T6, mouse IL-17F homodimer; experiment: cell-based or functional assay
# mouse IL-17A homodimer = target: T7, mouse IL-17A homodimer; experiment: cell-based or functional assay
# [5] = target: T2, cynomolgus IL-17A homodimer; experiment: cell-based or functional assay; remark: listed apart in the source
# human IL-17A homodimer [6] = target: T3, human IL-17A homodimer; experiment: cell-based or functional assay; remark: listed apart in the source
# human IL-17A homodimer [7] = target: T3, human IL-17A homodimer; experiment: SPR Biacore, mAb captured, cytokine as analyte
# Method: (§1) The affinity and binding kinetics of huIL-17F cross-reactive antibodies were characterized on a Biacore 2000 instrument (Biacore AB, Uppsala, Sweden). […] This surface was used to capture huIL-17A/F antibodies. The surface was regenerated after each cycle by injection of 10 mM glycine pH=1.5 at 20 μL/min, for 30 s followed by 1 min of stabilization time in HBS-EP buffer (Biacore AB, Uppsala, Sweden).
# (§2) All solutions were diluted in HBS-EP buffer. Injection was performed at 75 μl/min for 3 min followed by 12 min of dissociation time and the temperature was set at 25° C.
# [8] = target: T5, human IL-17A/IL-17F heterodimer; experiment: SPR Biacore, mAb captured, cytokine as analyte
# Method: as §1, §2
# [9] = target: cynomolgus IL-17A/IL-17F heterodimer (cynomolgus); experiment: cell-based or functional assay
# [10] = target: T2, cynomolgus IL-17A homodimer; experiment: FLISA, cytokine on beads
# Method: (§3) After an incubation period of 2 to 8 hours the fluorescence of the beads was measured in an 8200 Cellular Detection System analyzer (Applied Biosystems). Hybridomas producing human IgGs that bound to huIL-17F, huIL-17A or both huIL-17F and huIL-17A, but not to BSA, were expanded and subjected to further analysis.
# (§4) huIL-17F antibodies were tested for their ability to bind to the other members of the IL-17 family of cytokines, as well as to IL-17A and IL-17F from other species. The assay was performed in the FLISA format, as described above.
# [11] = target: T4, cynomolgus IL-17F homodimer; experiment: FLISA, cytokine on beads
# Method: as §3, §4
Binder,"IC50, IL-6 secretion by MEF cells, cytokine at 5 ng/ml (rat IL-17A homodimer) [nM]","IC50, IL-6 secretion by MEF cells, cytokine at 5 ng/ml [1] [nM]","IC50, IL-6 secretion by MEF cells, cytokine at 5 ng/ml (human IL-17A homodimer [2]) [nM]","IC50, IL-6 secretion by MEF cells, cytokine at 25 ng/ml [3] [nM]","IC50, IL-6 secretion by MEF cells, cytokine at 17.5 ng/ml [4] [nM]","IC50, IL-6 secretion by MEF cells, cytokine at 50 ng/ml (mouse IL-17F homodimer) [nM]","IC50, IL-6 secretion by MEF cells, cytokine at 5 ng/ml (mouse IL-17A homodimer) [nM]","IC50, IL-6 secretion by HFFF2 human fibroblasts, cytokine at 25 ng/ml [5] [nM]","IC50, IL-6 secretion by HFFF2 human fibroblasts, cytokine at 25 ng/ml (human IL-17A homodimer [6]) [nM]",Kd (human IL-17A homodimer [7]) [nM],Kd [8] [nM],"IC50, IL-6 secretion by MEF cells, cytokine at 25 ng/ml [9] [nM]",binding result [10],binding result [11]
B1,> 1000,13,33,3.2,13,4.2,> 1000,–,–,–,–,–,–,–
B2,> 1000,140,180,15,160,22,> 1000,–,–,–,–,–,–,–
B3,> 1000,4.7,9.8,5.2,11,4,> 1000,15,14,0.0895,0.402,16,–,–
B4,–,230,100,50,240,–,–,–,–,–,–,–,–,–
B5,–,8.4,40,3.6,1.1,–,–,–,36,–,–,0.56,–,–
B6,–,330,480,3.4,16,–,–,–,–,–,–,–,–,–
B7,–,290,–,4.2,9.2,–,–,–,–,–,–,–,–,–
B8,> 1000,3,1.1,130,31,–,–,6.6,4.2,0.0594,0.0981,15,–,–
B9,–,–,> 1000,–,910,–,–,–,–,–,–,–,binds,binds
B10,–,2,1.6,1.4,1.1,> 1000,–,4.5,3.9,0.0364,0.0447,0.18,–,–
